Experimental data: publication PMC9482650, “Quantitative fragmentomics allow affinity mapping of interactomes” (Nature Communications, 2022)

What was measured:
Assay in all cases: holdup assay
Set-up in all cases: key: below the threshold = too weak to quantify, mostly under pKd 3.1 to 4
Settings in all cases: plain residues with an end cap or a label only (N-terminal biotin on a linker: ado-ado)
[1] = molecular target: T1, SHANK1, Q9Y566
T1 sequence (Q9Y566 658-767, limits assumed, looked up): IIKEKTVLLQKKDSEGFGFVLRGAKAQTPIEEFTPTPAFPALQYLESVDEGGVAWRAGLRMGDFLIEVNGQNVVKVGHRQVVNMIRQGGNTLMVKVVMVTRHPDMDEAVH

[2] = molecular target: FRMPD2_1, Q68DX3
Chain of FRMPD2_1, Q68DX3 (Q68DX3 770-861): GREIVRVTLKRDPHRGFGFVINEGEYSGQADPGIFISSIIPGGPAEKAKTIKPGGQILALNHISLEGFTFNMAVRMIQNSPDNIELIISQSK

[3] = molecular target: MAGI2_6, Q86UL8
Chain of MAGI2_6, Q86UL8 (Q86UL8 1141-1229): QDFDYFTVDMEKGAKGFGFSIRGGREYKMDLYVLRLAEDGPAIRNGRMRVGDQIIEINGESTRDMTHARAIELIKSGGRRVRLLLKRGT

[4] = molecular target: GRID2IP_1, A4D2P6
Chain of GRID2IP_1, A4D2P6 (A4D2P6 1-87): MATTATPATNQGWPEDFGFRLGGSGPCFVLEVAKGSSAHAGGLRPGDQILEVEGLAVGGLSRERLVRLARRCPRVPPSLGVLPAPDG

[5] = molecular target: MAST2, Q6P0Q8
Chain of MAST2, Q6P0Q8 (Q6P0Q8 1099-1202): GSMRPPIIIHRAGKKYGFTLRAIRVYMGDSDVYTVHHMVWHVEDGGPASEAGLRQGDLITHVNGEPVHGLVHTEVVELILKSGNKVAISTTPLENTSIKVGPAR

[6] = molecular target: MAGI2_2, Q86UL8
Chain of MAGI2_2, Q86UL8 (Q86UL8 410-522): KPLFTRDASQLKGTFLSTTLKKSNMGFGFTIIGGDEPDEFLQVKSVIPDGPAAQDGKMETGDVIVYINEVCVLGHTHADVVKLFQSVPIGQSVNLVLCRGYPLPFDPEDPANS

[7] = molecular target: DLG5_1, Q8TDM6
Chain of DLG5_1, Q8TDM6 (Q8TDM6 617-713): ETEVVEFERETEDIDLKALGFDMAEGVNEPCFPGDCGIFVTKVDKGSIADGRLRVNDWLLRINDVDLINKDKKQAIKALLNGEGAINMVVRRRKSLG

[8] = molecular target: T2, DLG3_3, Q92796
T2 sequence (Q92796 374-475, limits assumed, looked up): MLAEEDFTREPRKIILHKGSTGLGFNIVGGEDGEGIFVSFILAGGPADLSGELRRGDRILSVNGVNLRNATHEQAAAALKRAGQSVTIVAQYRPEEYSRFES

[9] = molecular target: T3, MPDZ_12, O75970
T3 sequence (O75970 1857-1958, limits assumed, looked up): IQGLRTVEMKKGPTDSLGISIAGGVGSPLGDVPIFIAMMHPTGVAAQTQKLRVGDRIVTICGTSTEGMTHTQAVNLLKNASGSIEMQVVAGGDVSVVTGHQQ

[10] = molecular target: T4, LIN7B, Q9HAP6
T4 sequence (Q9HAP6 88-185, limits assumed, looked up): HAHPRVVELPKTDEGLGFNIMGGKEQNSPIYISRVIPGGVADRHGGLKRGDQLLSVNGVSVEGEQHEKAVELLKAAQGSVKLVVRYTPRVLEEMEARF

[11] = molecular target: LNX1_1, Q8TBB1
Chain of LNX1_1, Q8TBB1 (Q8TBB1 261-371): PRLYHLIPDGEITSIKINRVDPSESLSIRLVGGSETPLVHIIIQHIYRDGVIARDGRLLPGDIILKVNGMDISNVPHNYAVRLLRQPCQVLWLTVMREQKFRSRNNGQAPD

[12] = molecular target: T5, LIN7A, O14910
T5 sequence (O14910 103-200, limits assumed, looked up): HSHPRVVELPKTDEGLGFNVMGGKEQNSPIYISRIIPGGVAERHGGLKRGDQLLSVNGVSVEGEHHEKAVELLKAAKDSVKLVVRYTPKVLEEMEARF

[13] = molecular target: T6, PTPN13_1, Q12923
T6 sequence (Q12923 1088-1188, limits assumed, looked up): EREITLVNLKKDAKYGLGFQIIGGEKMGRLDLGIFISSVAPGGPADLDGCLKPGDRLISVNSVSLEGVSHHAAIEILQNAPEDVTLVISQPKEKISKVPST

[14] = molecular target: T7, TX1BP3, O14907
T7 sequence (O14907 10-122, limits assumed, looked up): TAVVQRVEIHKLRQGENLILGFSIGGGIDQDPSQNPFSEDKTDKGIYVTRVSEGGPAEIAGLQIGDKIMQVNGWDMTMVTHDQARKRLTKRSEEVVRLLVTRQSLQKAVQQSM

[15] = molecular target: DLG1_2, Q12959
Chain of DLG1_2, Q12959 (Q12959 314-412): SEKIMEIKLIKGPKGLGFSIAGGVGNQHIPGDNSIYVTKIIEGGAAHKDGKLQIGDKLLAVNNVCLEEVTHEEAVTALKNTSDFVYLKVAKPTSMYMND

[16] = molecular target: T8, DLG3_1, Q92796
T8 sequence (Q92796 125-227, limits assumed, looked up): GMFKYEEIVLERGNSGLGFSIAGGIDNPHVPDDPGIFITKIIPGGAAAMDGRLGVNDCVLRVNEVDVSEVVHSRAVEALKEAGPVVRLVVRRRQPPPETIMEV

[17] = molecular target: NHERF2_2, Q15599
Chain of NHERF2_2, Q15599 (Q15599 142-238): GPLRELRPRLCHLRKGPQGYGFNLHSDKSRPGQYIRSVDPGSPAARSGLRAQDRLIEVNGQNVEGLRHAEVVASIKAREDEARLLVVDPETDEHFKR

[18] = molecular target: GOPC, Q9HD26
[19] = molecular target: NHERF4_4, Q86UT5
Chain of NHERF4_4, Q86UT5 (Q86UT5 464-550): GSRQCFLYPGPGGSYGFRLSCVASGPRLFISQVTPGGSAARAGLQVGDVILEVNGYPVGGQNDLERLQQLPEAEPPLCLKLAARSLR

[20] = molecular target: Inadl_1, Q8NI35
Chain of Inadl_1, Q8NI35 (Q8NI35 113-229): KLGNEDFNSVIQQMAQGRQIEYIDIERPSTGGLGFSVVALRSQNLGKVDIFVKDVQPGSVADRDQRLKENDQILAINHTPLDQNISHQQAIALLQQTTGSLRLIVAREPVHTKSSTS

[21] = molecular target: ARHGEF12, Q9NZN5-2
Chain of ARHGEF12, Q9NZN5-2 (Q9NZN5 other isoform, or with tags, fused parts or gaps): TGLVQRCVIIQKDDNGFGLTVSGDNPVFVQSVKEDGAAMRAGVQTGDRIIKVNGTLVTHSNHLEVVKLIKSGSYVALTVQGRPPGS

[22] = molecular target: T9, PCLO, Q9Y6V0
T9 sequence (Q9Y6V0 4491-4600, limits assumed, looked up): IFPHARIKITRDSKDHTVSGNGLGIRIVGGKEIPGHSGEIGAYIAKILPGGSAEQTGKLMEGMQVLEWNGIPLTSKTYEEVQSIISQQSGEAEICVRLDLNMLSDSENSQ

[23] = molecular target: GRASP, Q7Z6J2
Chain of GRASP, Q7Z6J2 (Q7Z6J2 96-193): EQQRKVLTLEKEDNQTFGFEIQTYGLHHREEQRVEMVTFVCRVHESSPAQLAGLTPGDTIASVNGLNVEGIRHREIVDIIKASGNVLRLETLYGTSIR

[24] = molecular target: Inadl_10, Q8NI35
Chain of Inadl_10, Q8NI35 (Q8NI35 1673-1763): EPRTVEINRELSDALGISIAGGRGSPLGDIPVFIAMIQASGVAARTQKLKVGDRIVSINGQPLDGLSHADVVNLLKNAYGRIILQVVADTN

[25] = molecular target: GORASP2, Q9H8Y8
[26] = molecular target: Inadl_9, Q8NI35
Chain of Inadl_9, Q8NI35 (Q8NI35 1530-1615): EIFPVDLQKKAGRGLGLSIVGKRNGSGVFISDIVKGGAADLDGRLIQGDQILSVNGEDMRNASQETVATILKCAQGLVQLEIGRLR

[27] = molecular target: Inadl_5, Q8NI35
Chain of Inadl_5, Q8NI35 (Q8NI35 673-780): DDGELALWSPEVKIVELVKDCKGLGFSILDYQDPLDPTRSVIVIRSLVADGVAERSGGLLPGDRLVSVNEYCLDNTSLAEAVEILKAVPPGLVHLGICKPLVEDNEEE

[28] = molecular target: T10, DVL3, Q92997
T10 sequence (Q92997 244-331, limits assumed, looked up): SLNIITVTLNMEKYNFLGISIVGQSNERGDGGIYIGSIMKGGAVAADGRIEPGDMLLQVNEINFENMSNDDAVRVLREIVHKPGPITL

B1: CRHR1, P34998 (peptide)
chain: FHSIKQSTAV
pKd [1]: 4.55
pKd [2]: 3.93
pKd [3]: 3.83
pKd [4]: below the threshold
pKd [5]: 5.35
pKd [6]: 5.03
pKd [7]: below the threshold
pKd [8]: 4.4
pKd [9]: below the threshold
pKd [10]: below the threshold
pKd [11]: below the threshold
pKd [12]: below the threshold
pKd [13]: below the threshold
pKd [14]: 4.11
pKd [15]: 4.98
pKd [16]: 4.04
pKd [17]: below the threshold
pKd [18]: 4
pKd [19]: 3.88
pKd [20]: below the threshold
pKd [21]: 4.63
pKd [22]: below the threshold
pKd [23]: 4.72
pKd [24]: below the threshold
pKd [25]: below the threshold
pKd [26]: 3.83
pKd [27]: below the threshold
pKd [28]: below the threshold
